Data taken from US20050079613.

Tests used:
[1] = biological target: T1, GST-MmUbc6
T1 sequence (Q9JJZ4 whole entry, looked up): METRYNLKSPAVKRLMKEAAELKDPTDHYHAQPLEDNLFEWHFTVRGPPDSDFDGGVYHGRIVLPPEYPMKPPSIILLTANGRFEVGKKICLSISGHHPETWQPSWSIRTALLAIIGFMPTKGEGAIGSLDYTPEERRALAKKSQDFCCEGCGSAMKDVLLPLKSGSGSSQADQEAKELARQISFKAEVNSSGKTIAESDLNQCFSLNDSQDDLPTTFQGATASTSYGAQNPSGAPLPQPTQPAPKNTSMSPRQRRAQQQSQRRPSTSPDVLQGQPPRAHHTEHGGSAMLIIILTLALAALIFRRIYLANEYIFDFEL

[2] = biological target: T2, GST-MmUbc7, P60605
T2 chain: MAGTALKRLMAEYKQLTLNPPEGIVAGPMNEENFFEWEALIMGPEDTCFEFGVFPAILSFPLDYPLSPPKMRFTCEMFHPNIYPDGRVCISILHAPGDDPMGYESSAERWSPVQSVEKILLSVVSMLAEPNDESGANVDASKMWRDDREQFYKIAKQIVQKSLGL

[3] = biological target: three human E2 enzymes UbCH2, UbCH3 and UbCH5a (at least one of these three enzymes)
[4] = biological target: GST-UbCH5a, P51668
[5] = biological target: E2 enzymes tested
[6] = biological target: T3, UbCH2, P62256
T3 chain: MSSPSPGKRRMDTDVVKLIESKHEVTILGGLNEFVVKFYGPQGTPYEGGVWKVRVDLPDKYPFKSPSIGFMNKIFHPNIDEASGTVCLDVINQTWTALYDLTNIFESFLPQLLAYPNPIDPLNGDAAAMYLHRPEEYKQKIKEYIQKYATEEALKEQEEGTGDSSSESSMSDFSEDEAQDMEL

GST-UbCH5a, P51668, sequence (P51668 whole entry): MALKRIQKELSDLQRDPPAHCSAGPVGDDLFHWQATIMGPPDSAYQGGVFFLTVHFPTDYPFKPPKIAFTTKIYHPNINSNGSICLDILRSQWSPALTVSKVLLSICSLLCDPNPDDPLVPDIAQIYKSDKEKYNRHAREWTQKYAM

Protein | promotion of ubiquitination in vitro [1] | promotion of ubiquitination in vitro [2] | formation of high-molecular weight ubiquitin complexes in vitro (anti-ubiquitin blot) [3] | formation of high-molecular weight ubiquitin complexes in vitro (anti-ubiquitin blot) [4] | formation of high-molecular weight ubiquitin complexes in vitro (anti-ubiquitin blot) [5] | formation of high-molecular weight ubiquitin complexes in vitro (anti-ubiquitin blot) [6] | formation of high-molecular weight ubiquitin complexes in vitro (anti-ubiquitin blot) [1]
GST fusion of the MARCH-I RING-CH domain (protein) MTSSHVCCNFLNMWKKSKISTMYYLNQDAKLSNLFLQASSPTTGTAPRSQSRLSVCPSTQDICRICHCEGDEESPLITPCRCTGTLRFVHQSCLHQWIKSSDTRCCELCKYDFIMETKLKPLRKWEKLQMTTSERRK | MARCH-I was only active with MmUbc6 | Whereas MARCH-II was able to function with both proteins, MARCH-I was only active with MmUbc6 | The RiNG-CH-GST fusion proteins of all four MARCH-proteins tested were able to catalyze the formation of high-molecular weight molecular ubiquitin complexes in the presence of at least one of these three enzymes | MARCH-I was less active with most E2 enzymes tested with the notable exception of UbCH5a | MARCH-I was less active with most E2 enzymes tested with the notable exception of UbCH5a | – | –
GST fusion of the MARCH-IV RING-CH domain (protein) WYCYGLCAPAPQMLRHQGLLKCRCRMLFNDLKVFLLRRPPQAPLPMHGDPQPPGLAANNTLPALGAGGWAGWRGPREVVGREPPPVPPPPPLPPSSVEDDWGGPATEPPASLLSSASSDDFCKEKTEDRYSLGSSLDSGMRTPLCRICFQGPEQGELLSPCRCDGSVKCTHQPCLIKWISERGCWSCELCYYKYHVIAISTKNPLQWQAISLTVIEKVQ | – | – | The RiNG-CH-GST fusion proteins of all four MARCH-proteins tested were able to catalyze the formation of high-molecular weight molecular ubiquitin complexes in the presence of at least one of these three enzymes | – | – | MARCH-IV was mostly active with UbCH2 | –
GST-ICP0-RING (amino acids 1-241 of ICP0) (protein) MEPRPGASTRRPEGRPQREPAPDVWVFPCDRDLPDSSDSEAETEVGGRGDADHHDDDSASEADSTDTELFETGLLGPQGVDGGAVSGGSPPREEDPGSCGGAPPREDGGSDEGDVCAVCTDEIAPHLRCDTFPCMHRFCIPCMKTWMQLRNTCPLCNAKLVYLIVGVTPSGSFSTIPIVNDPQTRMEAEEAVRAGTAVDFIWTGNQRFAPRYLTLGGHTVRALSPTHPEPTTDEDDDDLDD | – | – | – | ICPO promoted the formation of high-molecular weight complexes in the presence of the E2 enzyme ubCH5a | – | – | The ICP0-RING domain also showed some activity with the murine ER-bound E2 enzyme MmUbc6
